# What was measured:
# [1] = test system: synthetic purified T1A peptide
# [2] = target: T1, synthetic purified T1A peptide
# T1 chain: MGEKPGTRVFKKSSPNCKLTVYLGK
Molecule,"optimal T1A concentration for JNK3 phosphorylation by MKK7, against full-length arrestin-3 [1]","JNK3 phosphorylation by MKK4 as a function of T1A concentration (in vitro kinase assay, purified proteins) [2]","optimal T1A concentration for JNK3 phosphorylation by MKK4, against full-length arrestin-3 [2]"
MKK7 (purified),in both cases optimal T1A concentrations were ˜10-times lower than those of full-length arrestin-3,,
MKK4 (purified) (protein) MAAPSPSGGGGSGGGSGSGTPGPVGSPAPGHPAVSSMQGKRKALKLNFANPPFKSTARFTLNPNPTGVQNPHIERLRTHSIESSGKLKISPEQHWDFTAEDLKDLGEIGRGAYGSVNKMVHKPSGQIMAVKRIRSTVDEKEQKQLLMDLDVVMRSSDCPYIVQFYGALFREGDCWICMELMSTSFDKFYKYVYSVLDDVIPEEILGKITLATVKALNHLKENLKIIHRDIKPSNILLDRSGNIKLCDFGISGQLVDSIAKTRDAGCRPYMAPERIDPSASRQGYDVRSDVWSLGITLYELATGRFPYPKWNSVFDQLTQVVKGDPPQLSNSEEREFSPSFINFVNLCLTKDESKRPKYKELLKHPFILMYEERAVEVACYVCKILDQMPATPSSPMYVD,,the optimal concentration of T1A for promoting JNK3 phosphorylation by MKK4 is lower than for MKK7-JNK3 module,in both cases optimal T1A concentrations were ˜10-times lower than those of full-length arrestin-3

# Reference: US20180236026
